Reference: patent US20250032588A1 (Eli Lilly, published 2025)

Target: T1, human insulin receptor isoform A (human, UniProt P06213-2 28-1370)
T1 construct: whole, on cells; Tested as P1 membrane preparations of the over-expressing cells; also called hIR-A
Assay: competitive radio-ligand binding, [125I]-insulin, membranes of 293EBNA cells over-expressing hIR-A
Method: IC₅₀ values are determined from 4-parameter logistic non-linear regression analysis (XLFit version 4.0, IDBS). If necessary, curve top or bottom parameters are set to 100 or 0, respectively.
Reported values for Kᵢ are shown as geometric mean±the standard error of the mean (SEM), with the number of replicate determinations indicated by “n” (Table 1).

Ki [nM]	Binder
24.9	Example 1 fusion protein (SEQ ID NO:12) (Fc fusion) FVNQHLCGSHLVEALELVCGERGFHYGGGGGGSGGGGGIVEQCCTSTCSLDQLENYCGGGGGQGGGGQGGGGQGGGGGECPPCPAPPVAGPSVFLFPPKPKDTLMISRTPEVTCVVVDVSHEDPEVQFNWYVDGVEVHNAKTKPREEQFNSTFRVVSVLTVVHQDWLNGKEYKCKVSNKGLPAPIEKTISKTKGQPREPQVYTLPPSREEMTKNQVSLTCLVKGFYPSDIAVEWESNGQPENNYKTTPPMLDSDGSFFLYSKLTVDKSRWQQGNVFSCSVMHEALHNHYTQKSLSLSPG
10.1	Example 3 fusion protein (SEQ ID NO:17) (Fc fusion) FVNQHLCGSHLVEALELVCGERGFHYGGGGGGSGGGGGIVEQCCTSICSLDQLENYCGGGGGQGGGGQGGGGQGGGGQGGPCPPCPAPEAAGGPSVFLFPPKPKDTLMISRTPEVTCVVVDVSQEDPEVQFNWYVDGVEVHNAKTKPREEQFNSTYRVVSVLTVLHQDWLNGKEYKCKVSNKGLPSSIEKTISKAKGQPREPQVYTLPPSQEEMTKNQVSLTCLVKGFYPSDIAVEWESNGQPENNYKTTPPVLDSDGSFFLYSRLTVDKSRWQEGNVFSCSVMHEALHNHYTQKSLSLSLG
35.6	Example 5 fusion protein (SEQ ID NO:19) (Fc fusion) FVNQHLCGSHLVEALELVCGERGFHYGGGGGGSGGGGGIVEQCCTSTCSLDQLENYCGGGGGQGGGGQGGGGQGGGGQGGPCPPCPAPEAAGGPSVFLFPPKPKDTLMISRTPEVTCVVVDVSQEDPEVQFNWYVDGVEVHNAKTKPREEQFNSTYRVVSVLTVLHQDWLNGKEYKCKVSNKGLPSSIEKTISKAKGQPREPQVYTLPPSQEEMTKNQVSLTCLVKGFYPSDIAVEWESNGQPENNYKTTPPVLDSDGSFFLYSRLTVDKSRWQEGNVFSCSVMHEALHNHYTQKSLSLSLG
3.74	Example 9 fusion protein (SEQ ID NO:23) (Fc fusion) FVNQHLCGSHLVEALELVCGERGFFYTEETGGGGGGGIVEQCCTSICSLYQLENYCGGGGGSGGGGSGGGGSGGGGSECPPCPAPPVAGPSVFLFPPKPKDTLMISRTPEVTCVVVDVSHEDPEVQFNWYVDGVEVHNAKTKPREEQFNSTFRVVSVLTVVHQDWLNGKEYKCKVSNKGLPAPIEKTISKTKGQPREPQVYTLPPSREEMTKNQVSLTCLVKGFYPSDIAVEWESNGQPENNYKTTPPMLDSDGSFFLYSKLTVDKSRWQQGNVFSCSVMHEALHNHYTQKSLSLSPG
